The target of assay [1] is T1, FcγRI (UniProt P12314 16-288, limits assumed).
T1 construct: His-tagged by the capture method
The experiment in a line: SPR (Biacore), receptor captured on anti-his chip, 1:1 model. How it is done:
(§1) Antibody binding affinity to FcγRs was detected using Biacore T200 (or Biacore 8K). Each receptor was captured on an anti-his antibody immobilized CM5 sensor chip (GE). Antibodies at different concentrations were injected over the sensor chip at a flow rate of 30 uL/min for an association phase of 60 s, followed by 60 s dissociation. The chip was then regenerated by 10 mM glycine (pH 1.5) after each binding cycle.
(§2) The sensorgrams of blank surface and buffer channel were subtracted from the test sensorgrams. The experimental data was fitted by 1:1 model using Langmiur analysis (for FcγRI) or steady state model (for other receptors). Molecular weight of 150 KDa was used to calculate the molar concentration of antibodies.

The target of assay [2] is T2, FcγRIIa (H167) (UniProt P12318 36-218, limits assumed).
T2 sequence (looked up): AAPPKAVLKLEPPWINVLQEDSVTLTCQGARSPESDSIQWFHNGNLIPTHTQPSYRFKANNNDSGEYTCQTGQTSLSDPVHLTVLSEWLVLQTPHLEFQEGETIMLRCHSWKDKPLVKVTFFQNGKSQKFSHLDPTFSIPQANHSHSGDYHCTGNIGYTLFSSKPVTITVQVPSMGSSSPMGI
The experiment in a line: SPR (Biacore), receptor captured on anti-his chip, steady state model. The procedure:
as §1, §2
(In general: Surface plasmon resonance follows binding to a sensor surface in real time, without labels.)

The target in assay [3] is T3, FcγRIIa (R167) (UniProt P12318 36-218, limits assumed).
T3 sequence (looked up): T2 sequence (looked up) with H132R
Described as above. The procedure: as §1, §2

In assay [4] the target is T4, FcγRIIb (UniProt P31994 46-217, limits assumed).
T4 sequence (looked up): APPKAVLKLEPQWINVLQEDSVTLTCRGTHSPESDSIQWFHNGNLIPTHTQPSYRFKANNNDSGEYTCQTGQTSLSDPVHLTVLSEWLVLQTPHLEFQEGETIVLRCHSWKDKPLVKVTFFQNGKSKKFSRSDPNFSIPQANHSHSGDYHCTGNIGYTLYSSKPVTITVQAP
The description is as above. How it is done:
as §1, §2

Assay [5] concerns the target FcγRIIIa (F176) (UniProt P08637 17-208). The description is as above. The procedure: as §1, §2
In assay [6] the target is FcγRIIIa (V176) (UniProt P08637 17-208). The description is as above. How it is done:
as §1, §2

The target in assay [7] is FcγRIIIb (UniProt O75015 17-200, limits assumed). The assay is described as above. How it is done: as §1, §2
Assay [8] has as its target T5, human PD-1 on engineered CHO-S cells (W305-CHO-S.hPro1.C6) (human, UniProt Q15116 25-288).
T5 construct: whole, on cells; also called human PD-1 engineered cells; PD-1+ cells
The assay can be described thus: FACS on human PD-1 engineered cells. The procedure, abridged: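 CHO-S cells engineered to express human PD-1 (1×10⁵/well) were incubated with antibodies titrated 3.16-fold from 200 nM to 0.002 nM in 1% BSA DPBS, 1 h at 4 °C. Bound antibody was detected with PE-labeled goat anti-human secondary (1 h, 4 °C) by flow cytometry as MFI.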

Assay [9] deals with T6, human CTLA-4 on engineered 293F cells (W316-293F.hPro1.FL) (human, UniProt P16410 36-223).
T6 construct: whole, on cells; also called human CTLA-4 engineered cells; CTLA-4+ cells
The experiment in a line: FACS on human CTLA-4 engineered cells. How it is done:
(§3) 3.16-fold titrated Abs with 1% BSA DPBS from 200 nM to 0.002 nM were added to the cells. Plates were incubated at 4° C. for 1 hour. After wash, […] 1:150 diluted PE-labeled goat anti-human antibody (Jackson 109-115-098) was added to each well and the plates were incubated at 4° C. for 1 hour. The binding of the antibodies onto the cells was tested by flow cytometry and the mean fluorescence intensity (MFI) was analyzed by FlowJo.

For assay [10], the target named is T6, human CTLA-4 on engineered 293F cells …. The assay can be described thus: FACS on human CTLA-4 engineered cells, against benchmark BMK1. The procedure:
as §3

Assay [11] deals with CTLA-4 (competition assays of Example 15) (UniProt P16410 36-161, limits assumed). The experiment in a line: FACS competition: antibody titrated against CD80 binding to CTLA-4.
The target of assay [12] is T5, human PD-1 on engineered CHO-S cells …. The assay can be described thus: FACS competition: antibody titrated against human PD-L1 binding to PD-1; falling curve, half-maximal value labelled EC50 on the sheet. How it is done: In order to test whether the bispecific antibodies could block hPD-L1 binding to hPD-1 protein, a competitive FACS was conducted. […] Plates were incubated at 4° C. for 1 hour. After wash, the binding of W315-hPro1.ECD.mFc to cell expressive human PD-1 was detected by FITC-labeled goat anti-mouse antibody (abcam 98716 1:125). The competition binding of antibodies to the cells was tested by flow cytometry and the mean fluorescence intensity (MFI) was analyzed by FlowJo.

Assay [13] deals with T7, human PD-1 ECD mouse Fc fusion (W305-hPro1.ECD.mFc) (human, UniProt Q15116 25-170).
T7 construct: extracellular domain; In-house protein; also called hPD-1-ECD; human PD-1 coated on the plate
The assay can be described thus: dual-binding ELISA: human PD-1 ECD coated, antibody titrated, bound antibody detected with biotinylated human CTLA-4 ECD and streptavidin-HRP. How it is done:
In order to test whether the bispecific antibodies could bind to both hPD-1 and hCTLA-4, an ELISA assay was developed as below. A 96-well ELISA plate (Nunc MaxiSorp, ThermoFisher) was coated overnight at 4° C. with 0.5 μg/ml antigen-1 (hPD-1-ECD, W305-hPro1.ECD.mFc) in carbonate-bicarbonate buffer. After a 1 hour blocking step with 2% (w/v) bovine serum albumin (Pierce) dissolved in PBS, serial dilutions of the different PD-1×CTLA-4 bispecific antibodies in PBS containing 2% BSA PBS were incubated on the plates for 1 hour at room temperature. Following the incubation, plates were washed three times with 300 μL per well of PBS containing 0.5% (v/v) Tween 20. […] After washing the plates three times, Streptavidin-HRP (Lifetechnologies, #SNN1004) (1:20000 diluted) was added and incubated on the plates for 1 hour at room temperature. After washing six times with […] per well of PBS containing 0.5% (v/v) Tween 20, 100 μL tetramethylbenzidine (TMB) substrate was added for the detection per well. The reaction was stopped after approximately 5 minutes through the addition of […] per well of 2 M HCl. The absorbance of the wells was measured at 450 nm with a multiwall plate reader (SpectraMax® M5e).
Background: ELISA stands for enzyme-linked immunosorbent assay.

Positions count from the first letter of the chain named.

T5 sequence (Q15116 25-288, change not shown): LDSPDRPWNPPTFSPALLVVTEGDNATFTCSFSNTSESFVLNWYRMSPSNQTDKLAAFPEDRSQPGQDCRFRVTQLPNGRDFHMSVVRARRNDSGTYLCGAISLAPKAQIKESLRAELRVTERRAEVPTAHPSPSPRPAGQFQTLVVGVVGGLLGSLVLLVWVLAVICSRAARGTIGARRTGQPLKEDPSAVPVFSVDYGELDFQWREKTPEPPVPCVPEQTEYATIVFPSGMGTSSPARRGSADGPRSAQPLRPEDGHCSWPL
T6 sequence (P16410 36-223, change not shown): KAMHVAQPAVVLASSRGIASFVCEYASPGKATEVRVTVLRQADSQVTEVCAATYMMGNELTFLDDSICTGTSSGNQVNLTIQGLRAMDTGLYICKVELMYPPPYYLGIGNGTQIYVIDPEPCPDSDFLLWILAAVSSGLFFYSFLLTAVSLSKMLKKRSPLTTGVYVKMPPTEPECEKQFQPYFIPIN
FcγRIIIb, sequence (O75015 17-200 limits assumed): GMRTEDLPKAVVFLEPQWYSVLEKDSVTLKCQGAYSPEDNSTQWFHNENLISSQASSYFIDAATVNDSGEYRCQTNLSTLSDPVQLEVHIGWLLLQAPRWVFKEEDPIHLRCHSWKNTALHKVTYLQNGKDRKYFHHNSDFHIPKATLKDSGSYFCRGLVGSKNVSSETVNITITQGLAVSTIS
FcγRIIIa (V176), sequence (P08637 17-208 F176V limits assumed): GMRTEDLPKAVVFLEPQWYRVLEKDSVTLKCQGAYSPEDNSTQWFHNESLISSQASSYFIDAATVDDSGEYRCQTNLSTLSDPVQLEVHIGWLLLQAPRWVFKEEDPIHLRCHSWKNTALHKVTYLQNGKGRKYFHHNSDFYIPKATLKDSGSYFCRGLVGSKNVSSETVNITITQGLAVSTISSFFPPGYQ
CTLA-4 (competition assays of Example 15), sequence (P16410 36-161 limits assumed): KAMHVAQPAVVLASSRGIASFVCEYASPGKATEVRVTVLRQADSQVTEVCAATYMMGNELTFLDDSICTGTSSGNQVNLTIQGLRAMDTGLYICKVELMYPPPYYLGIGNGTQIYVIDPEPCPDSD
T1 sequence (P12314 16-288 limits assumed): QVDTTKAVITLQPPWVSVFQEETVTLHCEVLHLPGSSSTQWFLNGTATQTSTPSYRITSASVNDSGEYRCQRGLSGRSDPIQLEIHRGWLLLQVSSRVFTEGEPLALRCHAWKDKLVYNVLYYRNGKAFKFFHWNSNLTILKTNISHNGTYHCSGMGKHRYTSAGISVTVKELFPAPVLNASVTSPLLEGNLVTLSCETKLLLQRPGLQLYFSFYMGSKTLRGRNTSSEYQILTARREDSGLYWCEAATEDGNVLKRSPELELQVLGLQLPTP
T7 sequence (Q15116 25-170): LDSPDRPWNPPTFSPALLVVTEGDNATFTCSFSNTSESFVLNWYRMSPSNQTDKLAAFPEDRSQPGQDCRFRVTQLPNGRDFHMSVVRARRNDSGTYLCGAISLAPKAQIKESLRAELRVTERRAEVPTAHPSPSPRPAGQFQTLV
FcγRIIIa (F176), sequence (P08637 17-208 limits assumed): as the sequence (P08637 17-208 F176V limits assumed) above, with V160F counted along it

B1: T3U4.E17-2.(2).uIgG1 (E17-Design_2-QQQQ in wild type IgG1 with knobs-into-holes) (bispecific antibody)
heavy 1: not shown
light 1: DIVMTQSPDSLAVSLGERATINCKSSQSLLNSRTRKNYLAWYQQKPGQPPKLLIYWASTRQSGVPDRFSGSGSGTDFTLTISSLQAEDVAVYYCTQSHTLRTFGGGTKVEIKPDIQNPDPAVYQLRDSKSSDKSVCLFTDFDSQTQVSQSKDSDVYITDKCVLDMRSMDFKSNSAVAWSQKSDFACANAFQNSIIPEDTFFPSPESS
heavy 2: QMQLVQSGPEVKKPGTSVKVSCKASGYAFTSYNMYWVRQARGQRLEWIGYIDPYNGDTTYNQKFKGRVTITRDMSTSTAYMELSSLRSEDTAVYYCLTTAYAMDYWGQGTLVTVSSASTKGPSVFPLAPSSKSTSGGTAALGCLVKDYFPEPVTVSWNSGALTSGVHTFPAVLQSSGLYSLSSVVTVPSSSLGTQTYICNVNHKPSNTKVDKRVEPKSCDKTHTCPPCPAPELLGGPSVFLFPPKPKDTLMISRTPEVTCVVVDVSHEDPEVKFNWYVDGVEVHNAKTKPREEQYNSTYRVVSVLTVLHQDWLNGKEYKCKVSNKALPAPIEKTISKAKGQPREPQVCTLPPSREEMTKNQVSLSCAVKGFYPSDIAVEWESNGQPENNYKTTPPVLDSDGSFFLVSKLTVDKSRWQQGNVFSCSVMHEALHNHYTQKSLSLSPGK
light 2: DIQLTQSPSFLSASVGDRVTITCSASSTVNYMHWYQQKPGKAPKLLIYSTSNLASGVPSRFSGSGSGTEFTLTISSLQPEDFATYYCHQWSSYPYTFGQGTKLEIKRTVAAPSVFIFPPSDEQLKSGTASVVCLLNNFYPREAKVQWKVDNALQSGNSQESVTEQDSKDSTYSLSSTLTLSKADYEKHKVYACEVTHQGLSSPVTKSFNRGEC
notes: Order T3-HC / T3-LC / U4-HC / U4-LC; copies: 1 + 1 + 1 + 1
As a reminder, the Kd is the constant that tells how readily two partners part at equilibrium. Higher therefore signals lower affinity. Regarding B1, the Kd in assay [1] turned out to be 1.3 nM; in assay [2] it was 3580 nM; in assay [3], 4830 nM; in [4], 8070 nM; in [5], 2080 nM; in assay [6] it was 644 nM. This molecule showed an equilibrium dissociation constant (Kd) in assay [7] of 5160 nM.

B2: U6T5.G25.IgG4, bispecific anti-PD-1 x CTLA-4 (as listed in Example 15) (bispecific antibody)
heavy: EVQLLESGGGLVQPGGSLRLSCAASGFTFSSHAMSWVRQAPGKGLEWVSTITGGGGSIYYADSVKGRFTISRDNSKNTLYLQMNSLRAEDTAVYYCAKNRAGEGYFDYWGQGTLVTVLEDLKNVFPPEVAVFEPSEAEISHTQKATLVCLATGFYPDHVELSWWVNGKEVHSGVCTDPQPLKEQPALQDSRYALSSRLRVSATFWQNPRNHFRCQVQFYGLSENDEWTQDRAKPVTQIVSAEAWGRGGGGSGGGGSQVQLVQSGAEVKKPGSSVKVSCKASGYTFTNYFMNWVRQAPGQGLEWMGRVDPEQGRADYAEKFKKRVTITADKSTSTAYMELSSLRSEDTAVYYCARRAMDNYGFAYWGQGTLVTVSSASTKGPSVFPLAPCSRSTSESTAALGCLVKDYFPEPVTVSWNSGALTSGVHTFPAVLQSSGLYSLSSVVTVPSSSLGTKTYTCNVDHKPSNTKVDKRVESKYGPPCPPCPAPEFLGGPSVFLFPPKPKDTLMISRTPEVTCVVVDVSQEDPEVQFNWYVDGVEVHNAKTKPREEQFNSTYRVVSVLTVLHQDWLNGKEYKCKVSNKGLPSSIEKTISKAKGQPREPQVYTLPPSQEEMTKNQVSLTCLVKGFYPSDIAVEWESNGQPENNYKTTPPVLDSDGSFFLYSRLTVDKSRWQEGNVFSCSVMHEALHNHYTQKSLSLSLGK
light 1: SYELTQPLSVSVALGQTARITCGGDNIGNKDVHWYQQKPGQAPVLVIYRDSNRPSGIPEGFSGSNSGNTATLTISRAQAGDEADYYCQVWDSIWVFGGGTKLTVLPDIQNPDPAVYQLRDSKSSDKSVCLFTDFDSQTQVSQSKDSDVYITDKCVLDMRSMDFKSNSAVAWSQKSDFACANAFQNSIIPEDTFFPSPESS
light 2: EIVLTQSPDFQSVTPKEKVTITCSANSALSYMYWYQQKPDQSPKLWVHGTSNLASGVPSRFSGSGSGTDFTLTINSLEAEDAATYYCHHWSNTQWTFGGGTKVEIKRTVAAPSVFIFPPSDEQLKSGTASVVCLLNNFYPREAKVQWKVDNALQSGNSQESVTEQDSKDSTYSLSSTLTLSKADYEKHKVYACEVTHQGLSSPVTKSFNRGEC
notes: kept apart
The EC50 is the concentration that produces a half-maximal response. Read a high EC50 as a need for much substance. The term IC50 denotes the midpoint of a concentration-inhibition curve. A lower IC50 goes with higher potency. Consider B2, for which the EC50 in assay [8] is 1.32 nM; in [9], 7.55 nM; in assay [13], 0.071 nM. Further, the “fold improvement of EC50 against the benchmark antibody” value in assay [10] came out at 1.6 fold. The IC50 turned out to be 0.758 nM in [11] and 1.92 nM in assay [12].
